Measured values taken from publication PMC11603163.

Target: CLSY3-3xF-BLRP (Arabidopsis) (UniProt F4I8S3)
Experiment: co-IP; streptavidin beads (M-280 Dynabeads) capture CLSY3-3xF-BLRP from flower extracts of F1 plants crossed to NRPD1-3xF WT or CYC-AAAA; anti-FLAG western blot; dilution series of the WT co-IP

Chain of UniProt F4I8S3 (F4I8S3 whole entry): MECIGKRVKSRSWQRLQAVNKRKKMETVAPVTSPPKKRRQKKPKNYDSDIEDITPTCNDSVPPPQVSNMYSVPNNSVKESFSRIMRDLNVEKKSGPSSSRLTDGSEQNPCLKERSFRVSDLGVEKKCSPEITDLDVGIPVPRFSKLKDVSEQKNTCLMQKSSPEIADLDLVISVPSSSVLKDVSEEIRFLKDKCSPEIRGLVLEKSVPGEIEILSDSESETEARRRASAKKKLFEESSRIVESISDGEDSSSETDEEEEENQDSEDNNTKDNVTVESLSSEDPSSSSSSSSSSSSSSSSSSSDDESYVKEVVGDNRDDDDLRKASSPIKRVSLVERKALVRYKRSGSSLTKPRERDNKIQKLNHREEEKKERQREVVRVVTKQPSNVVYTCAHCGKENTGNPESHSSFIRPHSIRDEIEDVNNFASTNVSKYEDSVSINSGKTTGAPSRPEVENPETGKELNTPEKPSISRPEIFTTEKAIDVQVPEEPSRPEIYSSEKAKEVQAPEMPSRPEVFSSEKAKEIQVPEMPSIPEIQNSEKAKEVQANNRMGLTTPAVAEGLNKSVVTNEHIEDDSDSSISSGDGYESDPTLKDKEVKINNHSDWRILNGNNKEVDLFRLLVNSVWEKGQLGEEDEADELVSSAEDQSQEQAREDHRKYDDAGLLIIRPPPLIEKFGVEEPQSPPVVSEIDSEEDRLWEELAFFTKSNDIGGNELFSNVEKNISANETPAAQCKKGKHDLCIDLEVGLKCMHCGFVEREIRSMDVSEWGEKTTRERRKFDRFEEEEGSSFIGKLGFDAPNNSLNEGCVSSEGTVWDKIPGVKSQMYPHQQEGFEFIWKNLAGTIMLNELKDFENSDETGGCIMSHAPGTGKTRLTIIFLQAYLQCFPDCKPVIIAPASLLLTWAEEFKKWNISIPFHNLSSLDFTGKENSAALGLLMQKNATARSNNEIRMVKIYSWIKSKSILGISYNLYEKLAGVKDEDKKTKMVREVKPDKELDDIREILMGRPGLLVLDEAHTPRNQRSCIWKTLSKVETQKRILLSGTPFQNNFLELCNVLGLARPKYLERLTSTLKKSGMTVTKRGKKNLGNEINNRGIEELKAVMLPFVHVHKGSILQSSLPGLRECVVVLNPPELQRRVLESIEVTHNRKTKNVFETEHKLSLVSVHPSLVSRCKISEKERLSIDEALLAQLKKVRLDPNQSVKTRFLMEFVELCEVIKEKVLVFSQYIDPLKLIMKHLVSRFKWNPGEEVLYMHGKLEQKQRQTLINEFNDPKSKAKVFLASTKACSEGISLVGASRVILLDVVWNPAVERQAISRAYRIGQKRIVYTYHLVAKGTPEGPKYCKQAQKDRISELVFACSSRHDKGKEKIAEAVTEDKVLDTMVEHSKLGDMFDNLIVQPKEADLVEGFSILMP

## NRPD1-3xF_(CYC-AAAA) (from UniProt Q9LQ02 1-1453) (natural protein)
  fold reduction of the co-IP against NRPD1-3xFWT: > 8 fold
